The DeepSol protein solubility set

Assay: soluble on expression in E. coli; label from the status in PepcDB or PDB records

Question: For “MAHHHHHHMKRGGRKKKGTLSNKLGKGKNDPSEDEEVIESETSSDEMGESNSASEESIDSDADNLSDKEQESQAEKQIQIYFTSNVANEKYQMEDTIYTIPATFKRIDLSRMVKKLLDIKENVSFEFLINDQILRSSIEEFLQLNNILSENVIEIKYILSITKKESTPIDKISEWISKLIIIENRLYCSTFGGSALCYDMSNFAKIDARKVADMSIFAFNVCKNDKLIDGEVKYSESVVGLSNGTIRAFLNEEMDQKIVTRSDLYLGNHDDMVKSIAFNKSGSLLITGGADNKINLYDNKEIVQKLKEYKSENDTNKRKMKHVLTPKKCIHKDVGIITTLTFFNSNNHFLCTGLEKNIKIYDADTADLFATLPYGKAIMCSDILNDNLFVTADEQSVIKLFDVRCLEEKAVISMNENKYFFHDKVITSLWGNKNGIHFLSSSHDGFTNIYDVRLNKFPVYTIQTEDKSKVLSSTWFYRESNNYVINADENNLTLHSF”, which “soluble on expression in E. coli” value is on record?
Answer: not soluble

Question: For “MAHHHHHHMKRVANAKHATYDMPPKGLRVRDMLEKTAQQNCNQRKRGKCRKFFFLWKMDKMGDTHLGGQANGRKNLLRSESATDEASLGGNPLKEKLKESPANWGKDKQEEQQSTDRLPLPKVGNKMPEKKPDWFHVPAPTGKKYNELKADLKKLKLHTVCEEAQCPNIGECWNIGTATIMLLGDTCTRGCKFCSIKTSSKPLPPDANEPFNTAKAICEWDINYVVLTSVDRDDLPDGGASHFAKTIELIKFSRPEILIECLVSDFQGNVDSIRKLANSGMEVYAHNIETVRRLQKFVRDRRANYEQSLWVLKTAKEINPLLYTKTSIMLGLGETKQEVLQAMADVRQNNIDVITFGQYLRPTKNHLNVVEYVSPQMFDYYKEEGMKMGFKYIASGPLVRSSYKAGEYFMKNLVEQRRGVKLHAEG”, which “soluble on expression in E. coli” value is on record?
Answer: not soluble

Question: With “MAHHHHHHMKVSFTLFFIIYIILNCDVLKCEVESSDSTSFLNLISGQSSSNSDDTVSSSDSRGVVASVSGTVDSDVSRTDSTGNVNSKNSELSETRQNSVEQNNNSNSSDNSIKIKSAFLKENVGVKITGPCDEGFGLVMVPHIIINVDTRNTDIQLGKKSSEINYGIKLRKKGKDEYEEKVGIDLLKNVCETGKNFKFVAYIKGDELIIKWKVIEEGNIPIDIKKFKIKRMSPPITSIQVFSSMSDEKSFVLENKNYVVTNNMPEKCEALATNCFLSGNIDIEKCYQCSLLVENDSKSDVCYNFISRENKEKLNEERFKVKGSTEYEESVESELKGAIDLLISSFYKSDGENGENVLISFEDLNSTLEDDIINFCSLLKLVDLSG” as the sequence, how does the “soluble on expression in E. coli” value read?
Answer: not soluble

Question: With “MAHHHHHHMLCAGKGRVEATQDVARQFLRKCVERLEKNEKDMAVKFDITMTMVSLRCADQCCDLLKPGASYEKMMMGSSPVYGPCLLGLETKVHKTASECVSSFDAGLKNAKEDKEIVAAFFVLKTIKKTGAEEEVHLSSLCIALCGETVAHKTDIRDKAASSPHRLFRYAVDGACVTVSGLWIVSKDVDAREGLEVERKMREVKNQPPRSGNVKRFVDYTYKEIMRQKEKLESATGSEKKTREAQIERMEEMVKDAKELLTSPENTRPKGYSMGR” as the sequence, how does the “soluble on expression in E. coli” value read?
Answer: not soluble

Question: With “MAHHHHHHMLHLHRCAAQGDWLFLKNLHLVLDWASVLEKELCAMPIPSAEFRLIITTEPHDSFPVVLLRMSAKVTIEAPPGMKQNLLQSYTTWDEAFLQGKTKTTSQVLFGLAWFHALLQERRGYIPQGWVKFYEFSSADLKSAADVLCTLSRDKMDWTTVRGLLQECIYGGRLENSHDERVLERLISRIFNDETLVSCDRRLYDDMRVPATNVHRAVVQFIREHLPDADSPSILSLPDNADRAVKEQFALKLTEDLHTVSHLAQVCVSATEAWRTLLAPVLELWKNSALEPEGNAATVSPGETKEDPMSIFFMRELELLVGIVSNLTETFYDLRCVVEGTLIPSPELREEGTELIGGRVPPRWLDLMDGPKDVKLWFALLRRRRDTMMEYAKRPFSPSTPFDLIDFLRPQTFLNALRLYTVRVSNEALVELMLVATPVGRTADRLGVGFTLKGKSIHLQGALLDAQGILSLPSASSPSSTPLSCDVWAAWMSKHNTEGLARIPIYTNAGRTAAIMDLFLSCDSDMAEKLLLGGVAAFLMSV” as the sequence, how does the “soluble on expression in E. coli” value read?
Answer: not soluble

Question: Which “soluble on expression in E. coli” value does the source give for “MAHHHHHHMLHTTRLWLGGYMMYHRKAMGTMKYSKWKGAHGGISHFYGRTPMVEEVRPNEPITLVDRRIMHYVHHSRLRHFQLFRSYQEKSNSTECKLREGEMLRRRWHRRLQKSFIAFMQFKTMKVLEDQARLVNTYGQAAVNAALGDPWNATDNVARERKSAAVRRQVRALPMVNVVPKHVATMKQIHNDRFNYRWRVN” here?
Answer: not soluble

Question: With “MAHHHHHHMLKFRERLSKNCLPAFNLELVYQCAERALEEELNETCSAAKCVPMSGISERIFVGTWRDAADEKLLRQMCITHTLNVARELVDTEEMHRVESVPFVTSKSIPLSDSLDEDIVHHFEDAFEFIRGATRNGRILVYCRRGMSRSAAIVVAYLMESEGMSFCDAHNDVKDKRPCISLNLAFLQRLQEYEEHLEKVRAAARTN” as the sequence, how does the “soluble on expression in E. coli” value read?
Answer: not soluble

Question: Which “soluble on expression in E. coli” value does the source give for “MAHHHHHHMLKRYERTKLNVLRGERFLRLCEVSYRAVCRDPSLGGAEGIANIEDRTWEMVQRTFQASPERCSLKNAPFSVDGVEICALLRRPDNVFLILVAQYRPPVDAVVLEFPAGLVDNGEDVKSAALRELKEETGYVATEENIISVTDALCCEPGMTDSCCKFVRLFVDGEKEVNRFPQQELDEGEDIEVILLPISLKKGVAGGDTPLQSLNKLLHEKNKGQQRNIVDAKLYMFLDGLSQMSTMFC” here?
Answer: soluble

Question: With “MAHHHHHHMLMHSSTLGSVTYTGMKRRSNAASFSTYLRYSSKVVAPIVRSSPRANMGFKRFAASIAPSDLPAPSTTCISSMKRMMGVGLSRTSFKTLFRRSSNSPRYFAPAIRAPRSREKMREEERVSGTSPRTICCAMPSTMDVLPTPGSPIKTGLFFVRRDRTRMVRNTSSARPISGSSLPSSACRHMSIAYLDNAS” as the sequence, how does the “soluble on expression in E. coli” value read?
Answer: not soluble

Question: For “MAHHHHHHMLRRVVAPAPVSATAACAGQARSIYEYKFGQTPLTQPFGGTSRLPPGPSSNPAPVAPGKVEITKLHNGARVITHNLGGPSVSVGAYILAGPAYDPPSAPGAGAMMHLALTTSNYNNSLFQLDRNIRSVGAAQSHFEKHKHYIGIRIDARADKWKSAASTSSFSQRRQLQNQKQAEQQFSLNLVQDNIFTCIAAPRFHEPDVERFRDTIDNQVEELRWQCPAEYAKQMLETVAFYREPLGNPRFVPAMSNSIISSSVLLEQYSRYIVPSRVVVAGVNVDHAALIAEYENTPFPHSASAPHHARAQPCVVNWKDEASQYTGGERHDHEDRPKVMGTKPDMDPESIIAVGWLAYGKDRKMVKDHAASMVVGALMDIGFSGCMRCGAPDEMHEHTGLRAFYNPYQTAGLIGFTAKAEPQAAVRMVTDAVKMVRASQASVADSMLSVAKKMAKTQFMVQTVDTIRDYCDYLGTCLAVDSDSTLATSVEEVVDAINSVNAADVKRVYEKMFSNKTSLYGHGEMLGFPSMRQMGL”, which “soluble on expression in E. coli” value is on record?
Answer: not soluble

Question: For “MAHHHHHHMLTIVDELKAAVMARHEADAPKMKILKEKYKNEKLSDATIDAAYGGMRGITGLIYESSMLDKEQGICFRGMTIPECCEKIPKSWKGGTSPLPEGMLWLLMTGSIPTDKQVKELHVELHRRADNEAITAATKTIASLPENTHPMTQLSTGVLALQAFSKFAPAYASGKAIKSNFWEYALEDSLDIIARTPYLAAAIYNRLTTGRAAVLNPANPDLDWAANFTNMLGYQDEKFWDCMRLYLSLHADHEGGNVSAHATTLVASALSDPYLSFSAGLNGLAGPLHGLANQESLSYLFEMRDKCKAAGVNMKDRKELAAGLEKLTWERLNAKRVIPGYGHAVLRIPDPRYMCLREYCLKHFPDDELFFLVDTIYSIMPDILKKHGKTKNPFPNVDAHSGMLLQHFGLTEQNFYTVLFGISRQLGALTGVVWDRLQGRPIERPKSITSDALFKKFKIE”, which “soluble on expression in E. coli” value is on record?
Answer: not soluble

Question: For “MAHHHHHHMMLRRLFVFDAARATNMRFLTMTSEVRDNLTKQLSALKEECRGQGLDLADMSDASRVAMRTVQEGLTRVSVEDEIFKGKSITLSASMKAYTARLSNLQDEARSIQTEVDALLKMMWGTEAPTKAASFASPPRSTEEVGVSSSSAAAAAGGKGNETVDDEFIVEPPPLAKALGNDKRPAERVEAERVQGTAHKPVEEMRVEEIEVETIEVEVEPNESPADNMKITDITRELYERGVNFSDCLDARTLRQRYKDVLAGKISPGISPGTATSSPATAEANTNQPRMPQHRPYQQQQQQQQQQLNTNESGLAHDPYPNAYRKMVDPMKHVWELKNELAAEKGIDPKSVDLWSGKCKLEDHKLLYDYPSVQNYPIEVRQKGDIPR”, which “soluble on expression in E. coli” value is on record?
Answer: not soluble

Question: Which “soluble on expression in E. coli” value does the source give for “MAHHHHHHMMPTQSEEQTKAQIPKSQAKIVNELIENKDTICAWCFDVLKYELKNEKFDKVPPLIQSLHNDGFKIPFFVKWMKLNDVKDMGSYNYDAYELNGCIGCLGETDIMELRYYALESSLNDTRFYPITLKDFPFLIVTITYLFNFEKCAHVYDWVIGKHGIKISFVANKRRYSSTFLPEVASQHNFDHQTTVKKLIRKANYRGEINDELLENIEVERYEGVSCSLTHVDYERVKRD” here?
Answer: soluble

Question: Which “soluble on expression in E. coli” value does the source give for “MAHHHHHHMMRWAVDVTGIDVAEDLEREQRKCVYKVPRAANGESWHAVDDWRANASEYNDELGKVWALTRDEVQDAIAERALTANALFCNVGRTLAGALQRQGSITIAAGCASQLRGSCGRGLQWDGLLSNTQSIVSNDFACDAVPSTREVRVFSTFLNAEGKRMTVTVNMTQPTYRGVDVVAAFLQQAVATNESLSQRYSTNPRLYKLFIADEDTGEEEMAAQLDLGAQNFSCYAVNPMPAAKLFLFPQRTALLNTTTRDVNLTVQVRPLDPQAKAVQRQCVVPADMLAESLEATICSRLPASGIIQGSLRIMHGPMELNINEYYNFGAGCGQPNCPIAERTVLSLFRFGVREVVVNGRAVEEAPTEVLRDLTEDIIIDMGVDEAVSFQQFEVICINKYGARQQRLLCVDGEHLYTMRPNASEALPKTTERTIKDIEEVRIFADKPKYMEIAYTKSSHFEEDHFECTTTYNCALLNEKIRIVRRELRKREAEEQAASVKNETAMQRFMTGIRSRWFGGALQS” here?
Answer: not soluble

Question: Which “soluble on expression in E. coli” value does the source give for “MAHHHHHHMMSADPNSFEAIRPKLTAQTLQDIEGLDPQKYGFGREECCGPIPTKIIGSMSLREHIFLNTRMPAREWDKRTENVPGFKELSQRVKHALPDASFTVSHLDQDTEDSILHCKVDDDKKAVIITQYSSVSEPYELPWEVKGTLAVDRSGEYFIFVCSHFTRDARCGYCGSVLIDLFRHALLEKMGAGGTARVTVCSCSHVGGHVYAGNVIIYSRHGGICYGLFKPEDVLPVVDAIAEDKGAIPESLRNRIRGQMGSNAS” here?
Answer: soluble

Question: With “MAHHHHHHMNYDKLNLFKENFDMMYVIEEIETHLHEKKHLLCDINENILISEKNKTSIDIYEKHLIEKQIQILKKNKINYKKLNNINYVKYFLPLCIQPKTNNTDKCLSERDVYMKNFKKKNILRELHVKKRLTEYRINQFIEKYTGKFLKNNVLHKQISKIYNNKSKIEIFIKGDNFSYNRVIGDIAFFDSKPNVLLENVKYIVRKRKKKKLNNIKKNINI” as the sequence, how does the “soluble on expression in E. coli” value read?
Answer: not soluble

Question: With “MAHHHHHHMPAVKWSSPVVRNELMSLTRLPAEMQRAAAAAVAAHKNAYSPYSNFSVGAALLHDDGSVTAGCNYENCTLQSCCAERCAIVRANVEGHRRANAVAVYGRSYGAATPTNPPPVDALCPPCGLCRQLLVEVADLSQNFEEFMVVLVALDAQRAKVVRLADLVPAKFGPADIGMDVTQLGCHPSA” as the sequence, how does the “soluble on expression in E. coli” value read?
Answer: not soluble

Question: With “MAHHHHHHMPCNCRQGTGTHDHLQDGFARGGMFGVGSPLNAQVDVDLLQLWNSRNSVSEAARIFDPAKGDNDQPICSDADPELLLLIPLKEVCRIRSVSILGTNDDFAPSQVKLFCNPTGVVGFDSVRRLQHQEEIQLAQVSADDRIAYRLNPAKFSSAGCMGMLFEHSFGDDETHILRIELFGESTGRPVYQQTATNVVYEAMANPTDHNVGEELKKTFTIF” as the sequence, how does the “soluble on expression in E. coli” value read?
Answer: soluble
